Results on one molecule are retold here after PMC7990167, “An antibody targeting type III secretion system induces broad protection against Salmonella and Shigella infections” (PLoS Neglected Tropical Diseases, 2021).

The experiment concerns the target T1, IpaD (wild type, Shigella flexneri) expressed on the surface of yeast cells (Shigella flexneri, gene synthesized …, UniProt P18013).
T1 construct: IpaD of Shigella flexneri; also called wild-type IpaD; needle tip protein of the Shigella type III secretion system
Briefly: flow cytometry on cells; wild-type IpaD on the surface of yeast cells, increasing concentrations of the VHH, fluorescence by FACS; apparent KD, one site-specific binding model (PRISM). The note with it: one partner purified. On the technique in general: In flow cytometry, cells or beads pass a laser one at a time.

“And” between values parts separate entries of the source, which are not always exact repeats. Equal values may be shown once.

T1 sequence (P18013 whole entry): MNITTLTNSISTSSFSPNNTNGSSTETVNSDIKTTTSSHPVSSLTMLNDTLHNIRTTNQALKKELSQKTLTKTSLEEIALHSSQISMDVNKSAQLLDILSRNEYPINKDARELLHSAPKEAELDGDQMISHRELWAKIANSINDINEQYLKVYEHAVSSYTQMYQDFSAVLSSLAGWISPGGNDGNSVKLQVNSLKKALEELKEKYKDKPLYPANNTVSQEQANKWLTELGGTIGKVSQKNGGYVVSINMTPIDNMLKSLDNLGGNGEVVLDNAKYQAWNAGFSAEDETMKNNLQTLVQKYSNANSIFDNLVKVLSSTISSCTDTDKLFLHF

B1: VHH-20ipaD (VHH)
VHH: QVQLVESGGGLVQAGGSLRLSCAVSGLEMQSHAIGWFRQAPGKEREGVSCINDDGSTTRYADSVKGRFTISRDNAKNTVYLQMNSLKPEDTAVYFCAAKSVWFCSVIRSHEFNSWGQGTQVTVSS
notes: the VHH chain is in the complex IpaD/VHH-20ipaD, PDB 5VXM; Monomeric fractions of the gel filtration were pooled; source: E. coli BL21, purified (TEV cleavage, HisTrap flow-through, gel filtration)
Take B1: the Kd was 1.16 nM and 1.15 nM.
